# In paper PMC11229369:
# Where two headings read alike, the source gives them in different places.
# T1: Cas13h1 (UniProt PDB:8WCE_1 1-1111)
# T1 sequence: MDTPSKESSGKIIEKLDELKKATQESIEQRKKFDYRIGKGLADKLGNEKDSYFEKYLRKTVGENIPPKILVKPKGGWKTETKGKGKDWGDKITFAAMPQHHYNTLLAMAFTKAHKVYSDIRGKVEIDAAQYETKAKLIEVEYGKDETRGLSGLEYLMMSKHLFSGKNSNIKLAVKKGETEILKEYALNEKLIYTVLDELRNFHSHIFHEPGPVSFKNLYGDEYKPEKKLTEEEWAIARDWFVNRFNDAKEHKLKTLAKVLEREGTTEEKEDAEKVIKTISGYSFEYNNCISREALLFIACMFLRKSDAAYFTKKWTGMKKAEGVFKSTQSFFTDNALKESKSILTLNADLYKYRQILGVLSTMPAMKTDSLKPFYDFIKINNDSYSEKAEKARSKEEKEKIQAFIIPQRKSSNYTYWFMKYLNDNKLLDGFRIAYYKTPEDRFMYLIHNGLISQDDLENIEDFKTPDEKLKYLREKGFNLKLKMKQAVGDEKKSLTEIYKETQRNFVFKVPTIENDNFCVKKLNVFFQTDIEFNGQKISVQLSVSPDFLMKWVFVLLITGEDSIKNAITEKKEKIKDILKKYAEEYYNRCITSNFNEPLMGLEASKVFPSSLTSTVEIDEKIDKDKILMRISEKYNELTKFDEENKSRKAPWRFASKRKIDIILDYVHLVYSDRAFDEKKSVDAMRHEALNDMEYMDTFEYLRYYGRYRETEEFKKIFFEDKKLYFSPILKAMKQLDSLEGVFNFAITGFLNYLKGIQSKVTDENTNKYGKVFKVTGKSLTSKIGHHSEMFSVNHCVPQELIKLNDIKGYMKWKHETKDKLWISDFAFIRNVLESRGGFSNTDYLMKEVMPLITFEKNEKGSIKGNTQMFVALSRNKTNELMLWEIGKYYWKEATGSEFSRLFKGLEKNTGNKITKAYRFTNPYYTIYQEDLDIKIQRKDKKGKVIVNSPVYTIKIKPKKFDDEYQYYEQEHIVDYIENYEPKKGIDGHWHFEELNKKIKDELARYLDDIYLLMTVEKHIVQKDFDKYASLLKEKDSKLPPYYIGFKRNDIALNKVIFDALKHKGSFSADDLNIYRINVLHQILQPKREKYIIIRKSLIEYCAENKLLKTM
# T2: Cas13h1 Middle (UniProt PDB:8WCE_1 340-930)
# T2 sequence: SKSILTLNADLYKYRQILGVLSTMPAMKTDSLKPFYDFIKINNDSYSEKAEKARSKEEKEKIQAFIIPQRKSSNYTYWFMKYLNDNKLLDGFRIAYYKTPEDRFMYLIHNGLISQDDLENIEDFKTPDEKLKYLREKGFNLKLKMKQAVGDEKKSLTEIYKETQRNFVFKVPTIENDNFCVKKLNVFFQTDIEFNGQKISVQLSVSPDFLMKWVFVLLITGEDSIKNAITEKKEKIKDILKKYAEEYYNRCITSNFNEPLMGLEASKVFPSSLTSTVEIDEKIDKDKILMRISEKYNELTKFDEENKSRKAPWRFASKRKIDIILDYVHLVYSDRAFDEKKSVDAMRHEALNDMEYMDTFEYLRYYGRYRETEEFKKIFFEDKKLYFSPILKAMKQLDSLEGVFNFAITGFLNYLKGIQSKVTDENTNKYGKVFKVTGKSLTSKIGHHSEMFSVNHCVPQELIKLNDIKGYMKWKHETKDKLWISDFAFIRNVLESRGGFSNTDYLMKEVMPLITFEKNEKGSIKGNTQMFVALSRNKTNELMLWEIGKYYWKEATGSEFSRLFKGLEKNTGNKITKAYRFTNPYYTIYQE
# T3: Cas13h1 R200A (catalytically dead) (UniProt PDB:8WCE_1 1-1111, R200A)
# T3 sequence: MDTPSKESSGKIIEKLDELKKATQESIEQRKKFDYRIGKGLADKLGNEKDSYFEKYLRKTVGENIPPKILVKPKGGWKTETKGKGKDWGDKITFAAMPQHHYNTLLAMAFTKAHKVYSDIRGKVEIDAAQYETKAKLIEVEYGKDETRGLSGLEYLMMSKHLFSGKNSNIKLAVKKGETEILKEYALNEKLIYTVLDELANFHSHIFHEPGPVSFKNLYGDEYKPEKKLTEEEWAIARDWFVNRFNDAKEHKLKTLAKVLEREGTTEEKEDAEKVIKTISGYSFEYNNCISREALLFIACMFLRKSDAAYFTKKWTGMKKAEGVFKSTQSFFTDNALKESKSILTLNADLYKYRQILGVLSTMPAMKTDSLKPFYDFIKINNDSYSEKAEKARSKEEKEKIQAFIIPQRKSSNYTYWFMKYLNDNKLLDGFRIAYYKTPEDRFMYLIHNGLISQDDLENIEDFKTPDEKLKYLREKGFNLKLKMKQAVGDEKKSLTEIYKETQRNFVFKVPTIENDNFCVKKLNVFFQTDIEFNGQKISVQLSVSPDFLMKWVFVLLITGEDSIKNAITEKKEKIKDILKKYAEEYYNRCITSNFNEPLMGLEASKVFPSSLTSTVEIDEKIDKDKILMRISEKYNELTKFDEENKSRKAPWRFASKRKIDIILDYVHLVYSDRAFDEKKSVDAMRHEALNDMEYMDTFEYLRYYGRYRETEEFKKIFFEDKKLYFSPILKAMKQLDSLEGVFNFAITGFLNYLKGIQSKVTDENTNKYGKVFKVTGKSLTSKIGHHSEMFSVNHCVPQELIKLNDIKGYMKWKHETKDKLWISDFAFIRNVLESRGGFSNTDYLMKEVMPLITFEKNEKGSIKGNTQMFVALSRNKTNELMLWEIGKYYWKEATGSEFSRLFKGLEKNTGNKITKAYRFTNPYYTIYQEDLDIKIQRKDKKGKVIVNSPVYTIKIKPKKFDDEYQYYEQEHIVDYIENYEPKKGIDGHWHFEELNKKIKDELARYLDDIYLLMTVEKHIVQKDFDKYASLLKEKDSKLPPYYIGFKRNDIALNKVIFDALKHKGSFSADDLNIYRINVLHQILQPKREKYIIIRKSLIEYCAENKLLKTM
# Legend:
# Cas13h1 = target: T1, Cas13h1; test: cryo-EM
# Cas13h1 Middle = target: T2, Cas13h1 Middle; test: size exclusion chromatography
# [1] = target: T3, Cas13h1 R200A (catalytically dead); test: cryo-EM
# [2] = target: T3, Cas13h1 R200A (catalytically dead); test: cryo-EM; remark: listed apart in the source
binder,measurement,setting,value
"crRNA (30-nt guide, 36-nt repeat) (structured_RNA) RNA: UGCUUCACGUAGGCCUUGGAGCCGUACAUGGUUGUAACAAGCCUAAGUUUGAAAGGUAAAAACAAC",binding result,Cas13h1,binds
crRNA / target RNA1 (5'-G) (structured_RNA) RNA 1: UGCUUCACGUAGGCCUUGGAGCCGUACAUGGUUGUAACAAGCCUAAGUUUGAAAGGUAAAAACAAC RNA 2: GCAUGUACGGCUCCAAGGCCUACGUGAAGCA,binding result,Cas13h1 Middle,binds
same,binding result,[1],binds
crRNA / target RNA3 (5'-U) (structured_RNA) RNA 1: UGCUUCACGUAGGCCUUGGAGCCGUACAUGGUUGUAACAAGCCUAAGUUUGAAAGGUAAAAACAAC RNA 2: UCAUGUACGGCUCCAAGGCCUACGUGAAGCA,binding result,[2],binds
